Laboratory results: patent US20090280138A1 (OXFORD BIOMEDICA UK, published 2009)

Tests used:
Experiment in all cases: iTopia iScore
[1] = biological target: T1, MHC class I molecule A*0101 (biotin (bound to streptavidin-coated plate))
T1 construct: also called A1; HLA-A1
Method: (§1) The 9 mers were tested for Peptide Binding, Off Rate and Affinity using iTopia Epitope Discovery System in accordance with the manufacturer's instructions. Briefly, 96 well microtitre plates coated with MHC molecules representing different MHC alleles are used to identify candidate peptides. […] Determinations are performed in duplicate using an ELISA plate reader and included allele specific positive controls.
(§2) Finally, multiparametric analysis is performed on the results from these assays and an iScore is generated. The iScore represents a measure of the overall quality of peptide-MHC binding, enabling candidate peptides to be ranked in order of binding quality and allowing rational prioritisation of peptides for functional cellular follow-up studies.

[2] = biological target: T2, MHC class I molecule A*0201 (biotin (bound to streptavidin-coated plate))
T2 construct: also called A2; HLA-A2
Method: as §1, §2

[3] = biological target: T3, MHC class I molecule A*0301 (biotin (bound to streptavidin-coated plate))
T3 construct: also called A3; HLA-A3
Method: as §1, §2

[4] = biological target: T4, MHC class I molecule B*0702 (biotin (bound to streptavidin-coated plate))
T4 construct: also called B7; HLA-B7
Method: as §1, §2

Binder | iScore [1] | iScore [2] | iScore [3] | iScore [4]
SLRQLDLSH [5T4 9-mer peptide 72 SLRQLDLSH] | 0 | 0 | 0 | 0
AFSGSNASV [5T4 9-mer peptide 81 AFSGSNASV] | 0 | 0.116 | 0 | 0
APSPLVELI [5T4 9-mer peptide 86 APSPLVELI] | 0 | 0 | 0 | 0.101
ERQNRSFEG [5T4 9-mer peptide 95 ERQNRSFEG] | 0 | 0 | 0 | 0
VSAPSPLVE [5T4 9-mer peptide 85 VSAPSPLVE] | 0 | 0 | 0 | 0
LVELILNHI [5T4 9-mer peptide 88 LVELILNHI] | 0 | 0.109 | 0 | 0
GMVVAALLA [5T4 9-mer peptide 99 GMVVAALLA] | 0 | 0.384 | 0 | 0
ILNHIVPPE [5T4 9-mer peptide 90 ILNHIVPPE] | 0 | 0.426 | 0 | 0
EHLPSLRQL [5T4 9-mer peptide 70 EHLPSLRQL] | 0 | 0.046 | 0 | 0
ELILNHIVP [5T4 9-mer peptide 89 ELILNHIVP] | 0 | 0.067 | 0 | 0
RSFEGMVVA [5T4 9-mer peptide 97 RSFEGMVVA] | 0 | 0.189 | 0 | 0
LPSLRQLDL [5T4 9-mer peptide 71 LPSLRQLDL] | 0 | 0.098 | 0 | 0.454
LPSLRHLDL [5T4 9-mer peptide 117 LPSLRHLDL] | 0 | 0.028 | 0 | 0.445
PLADLSPFA [5T4 9-mer peptide 77 PLADLSPFA] | 0 | 0.556 | 0 | 0
RQLDLSHNP [5T4 9-mer peptide 73 RQLDLSHNP] | 0 | 0 | 0 | 0
SNASVSAPS [5T4 9-mer peptide 83 SNASVSAPS] | 0 | 0.154 | 0 | 0
NHIVPPEDE [5T4 9-mer peptide 91 NHIVPPEDE] | 0 | 0 | 0 | 0
AFEHLPSLR [5T4 9-mer peptide 69 AFEHLPSLR] | 0 | 0 | 0 | 0

Binder | iScore [1] | iScore [2] | iScore [3] | iScore [4]
PPEDERQNR [5T4 9-mer peptide 93 PPEDERQNR] | 0 | 0 | 0 | 0
IVPPEDERQ [5T4 9-mer peptide 92 IVPPEDERQ] | 0 | 0 | 0 | 0
LDLSHNPLA [5T4 9-mer peptide 74 LDLSHNPLA] | 0 | 0.226 | 0 | 0
LSHNPLADL [5T4 9-mer peptide 75 LSHNPLADL] | 0 | 0.095 | 0 | 0
LLAGRALQG [5T4 9-mer peptide 102 LLAGRALQG] | 0 | 0.176 | 0 | 0
FEGMVVAAL [5T4 9-mer peptide 98 FEGMVVAAL] | 0 | 0.051 | 0 | 0
ADLSPFAFS [5T4 9-mer peptide 78 ADLSPFAFS] | 0 | 0.116 | 0 | 0
EDERQNRSF [5T4 9-mer peptide 94 EDERQNRSF] | 0 | 0 | 0 | 0
SPLVELILN [5T4 9-mer peptide 87 SPLVELILN] | 0 | 0.094 | 0 | 0
HNPLADLSP [5T4 9-mer peptide 76 HNPLADLSP] | 0 | 0 | 0 | 0
AGAFEHLPS [5T4 9-mer peptide 68 AGAFEHLPS] | 0 | 0 | 0 | 0
VVAALLAGR [5T4 9-mer peptide 100 VVAALLAGR] | 0 | 0 | 0.125 | 0
AALLAGRAL [5T4 9-mer peptide 101 AALLAGRAL] | 0 | 0.156 | 0 | 0.238
SGSNASVSA [5T4 9-mer peptide 82 SGSNASVSA] | 0 | 0 | 0 | 0
LSPFAFSGS [5T4 9-mer peptide 79 LSPFAFSGS] | 0 | 0.064 | 0 | 0
QNRSFEGMV [5T4 9-mer peptide 96 QNRSFEGMV] | 0 | 0.052 | 0 | 0
ASVSAPSPL [5T4 9-mer peptide 84 ASVSAPSPL] | 0 | 0.059 | 0 | 0.017
PFAFSGSNA [5T4 9-mer peptide 80 PFAFSGSNA] | 0 | 0 | 0 | 0
